# Reference: patent US20150132314A1 (NOVIMMUNE S A, published 2015)
# Residue numbers refer to the chain shown, from its start.
# T1: cynomolgus IL-17F homodimer, His-tagged (cynomolgus, UniProt G7P4V0 31-163)
# T1 sequence: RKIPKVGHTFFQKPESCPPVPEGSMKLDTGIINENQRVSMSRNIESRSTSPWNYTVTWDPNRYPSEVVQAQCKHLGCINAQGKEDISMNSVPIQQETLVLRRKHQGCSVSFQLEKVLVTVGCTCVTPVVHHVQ
# T2: human IL-17F homodimer (human, UniProt Q96PD4 31-163)
# T2 sequence (looked up): T1 sequence with E22G, T29I, K73R, H74N, L100V, V129I
# B1: 1F1 antibody (antibody, V domains shown)
# VH: EVQLLESGGGLVQPGGSLRLSCAASGFTFSSYVMSWVRQVPGKGLEWVSAISGRGGNTFYADSVKGRFTISRDNSKNTLYLQMDSLRAEDTAVYYCAKDDRRIAAGSFDYWGQGTTVTVSS
# VL: AIQLTQSPSSLSASVGDRVTITCRASQGISSALAWYQQKPGKAPKLLIYDVSSLESGVPSRFSGSGSGTDFTLTISSLQPEDFATYYCQQFNSYPLTFGGGTKVEIK
# B2: 28B11 antibody (antibody, V domains shown)
# VH: QVQLVESGGGLVKPGGSLRLSCAASGFTFSNYYMTWIRQAPGKGLEWISYISSTGGNIYYADSVKGRFTISRDNAQNSLYLQMNSLRAEDTAVYYCARDGGVIISTAMFDYWGQGTTVTVSS
# VL: B1 VL with V51A, F62L
# B3: 11C5 antibody (antibody, V domains shown)
# VH: QVQLVQSGAEVKKPGASVKVSCKASGYTFTIYYLHWVRQAPGQGLEWMGIINPSGGRTNYAQKFQGRVTMTRDPSTNTVYMELSSLTSEDAAVYYCARGEFSSGWLDYWGQGTTVTVSS
# VL: B1 VL with A1D, L4M, L11V, A32W, Q38H, D50A, V51A, E55Q, F91A, Y94F
# B4: 43G6 antibody (antibody, V domains shown)
# VH: EVQLVESGGGLVQPGGSLRLSCAASGFTFSSYSMNWVRQAPGKGLEWVSYISSGSSTIYYADSVKGRFTISRDNAKNSLYLQMNSLRDEDTAVYYCAREGYVSGTYYNYYYGMDVWGQGTTVTVSS
# VL: EIVLTQSPATLSLSPGERATLSCRASQSVSSYLAWYQQKPGQAPRLLIYDAPNRATGIPARFSGSGSGTDFTLTISSLEPEDFAVYYCQQRSNWSLTFGGGTKVEIK
# B5: 22F8 antibody (antibody, V domains shown)
# VH: EVQLLESGGGLVQPGGSLRLSCAASGFTFSSYAMNWVRQAPGKGLEWVSTISGRGGSIYYADSVKGRFTISRDNSKNTLYLQMNSLRAEDTAVYYCAKEEATWDFDYWGQGTTVTVSS
# VL: B4 VL with Y32F, Y36F, P52S, S95P, L96P, G100Q
# B6: 21B10 antibody (antibody, V domains shown)
# VH: B4 VH with S53G
# VL: B4 VL
# B7: 2E12 antibody (antibody, V domains shown)
# VH: B4 VH with P14R, V48I, G54S, T57A, V102A, T105R
# VL: B4 VL with P52S, G64V, N93S
# B8: 5D3 antibody (antibody, V domains shown)
# VH: EVQLVESGGGLVQPGRSLRLSCAASGFTFDDYAMHWVRQAPGKGLEWVSGISWNSGSRGYADSVKGRFTISRDNAKNSLYLQMNSLRAEDTALYYCAKDMVYALDVWGQGTTVTVSS
# VL: EIVLTQSPGTLSLSPGERATLSCRASQSFSGSYLAWYQQKPGQAPRLLIYDTSSRATGIPDRFSGSGSGTDFTLTISRLEPEDFAVYYCQQYGTWTFGQGTKVEIK
# B9: 41B10 antibody (antibody, V domains shown)
# VH: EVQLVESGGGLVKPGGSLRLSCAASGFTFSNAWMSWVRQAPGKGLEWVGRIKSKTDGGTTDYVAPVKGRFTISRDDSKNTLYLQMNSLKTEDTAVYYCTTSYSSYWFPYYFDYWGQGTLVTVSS
# VL: DIQMTQSPSSLSASVGDRVTITCRASQGISSWLAWYQQKPEKAPKSLIYAASSLQSGVPSRFSGSGSGTDFTLTISSLQPEDFATYYCQQYNSYPITFGQGTRLEIK
# B10: 5E12 antibody (antibody, V domains shown)
# VH: QVQLVQSGGGLVQPGRSLRLSCAASGFTFDDYAMHWVRQAPGKGLEWVSGISWNSGTIGYADSVKGRFTISRDNAKNSLYLQMNSLRAEDTALYYCAKELYISDWDSYSYGMDVWGQGTTVTVSS
# VL: not shown
# Target: T1, cynomolgus IL-17F homodimer, His-tagged
# Assay: cell-based or functional assay
row,"IC50 (nM), IL-6 secretion by MEF cells stimulated with IL-17F (5 ng/ml) and mTNF-α",Binder
1,11 nM,B1
2,6.3 nM,B2
3,2.9 nM,B3
4,8.4 nM,B4
5,10 nM,B5
6,8.7 nM,B6
7,26 nM,B7
8,12 nM,B8
9,18 nM,B9
10,22 nM,B10

# Target: T2, human IL-17F homodimer
# Assay: cell-based or functional assay
row,"IC50 (nM), IL-6 secretion by MEF cells stimulated with IL-17F (5 ng/ml) and mTNF-α",Binder
1,1.1 nM,B1
2,1.2 nM,B2
3,0.4 nM,B3
4,1.1 nM,B4
5,2 nM,B5
6,2 nM,B6
7,5.9 nM,B7
8,0.5 nM,B8
